Data: US20210253725A1 (BIONTECH, published 2021)
Residue numbers refer to the chain shown, from its start. Numbers in names are those of the source.

T1: CD27 expressed on the cell surface of HT1080_CD27 cells (human, UniProt P26842 20-260)
T1 sequence (looked up): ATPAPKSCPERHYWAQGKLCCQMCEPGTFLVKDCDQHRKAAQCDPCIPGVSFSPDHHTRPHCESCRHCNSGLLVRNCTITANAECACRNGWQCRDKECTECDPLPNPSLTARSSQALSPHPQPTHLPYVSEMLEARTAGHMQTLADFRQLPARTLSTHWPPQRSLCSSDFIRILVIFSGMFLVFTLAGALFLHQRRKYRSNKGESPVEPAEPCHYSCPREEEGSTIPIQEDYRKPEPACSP

T2: CD134 expressed on the cell surface of HT1080_OX40 cells (human, UniProt P43489 29-277)
T2 sequence (looked up): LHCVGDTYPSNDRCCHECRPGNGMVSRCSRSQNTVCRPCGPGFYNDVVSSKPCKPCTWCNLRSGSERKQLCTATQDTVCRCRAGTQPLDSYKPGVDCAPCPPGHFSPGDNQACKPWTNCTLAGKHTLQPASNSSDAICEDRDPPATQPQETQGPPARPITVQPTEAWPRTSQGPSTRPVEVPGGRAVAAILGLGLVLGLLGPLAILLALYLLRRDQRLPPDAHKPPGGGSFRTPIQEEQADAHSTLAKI

T3: CD27 protein (His-tagged, Sino Biological Inc. 10039-H08B1) (human, UniProt P26842 20-192)
T3 construct: bought protein coated on ELISA plates; also called TNFRSF7; not shown: His tag
T3 sequence (looked up): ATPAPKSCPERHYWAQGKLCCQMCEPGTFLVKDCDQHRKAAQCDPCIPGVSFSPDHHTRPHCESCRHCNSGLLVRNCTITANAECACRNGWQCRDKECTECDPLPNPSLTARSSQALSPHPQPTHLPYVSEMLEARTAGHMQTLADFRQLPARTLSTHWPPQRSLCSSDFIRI

T4: CD134 protein (His-tagged, Sino Biological Inc. 10481-H08H) (human, UniProt P43489 29-216)
T4 construct: bought protein coated on ELISA plates; also called OX40; TNFRSF4; not shown: His tag
T4 sequence (looked up): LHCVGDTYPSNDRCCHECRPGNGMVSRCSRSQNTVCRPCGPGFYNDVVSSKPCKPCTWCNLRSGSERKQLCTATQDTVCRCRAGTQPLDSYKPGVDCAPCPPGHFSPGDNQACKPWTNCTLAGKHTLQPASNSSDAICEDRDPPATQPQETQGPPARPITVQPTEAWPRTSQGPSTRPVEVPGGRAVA

B1: P018.S.03.A.D05 (antibody, V domains shown)
VH: QSLEESGGRLVTPGTPLTLTCTASGFSLSSYYITWVRQAPGEGLEWIGTISTAGNTYFASWANGRFTISRTSTTVDLKMTSPTTEDTATYFCARDGAGDSNYYRNLWGQGTLVTVSS
VL: DIVLTQTPASVEAAVGGTVTIKCQASQSIDRFLAWYQQKPGQPPKLLIYDASDLASGVPSRFSGSGYGTEFTLTISGVQSEDAATYYCQQGYYISDIHNVFGGGTEVVVK
notes: V regions on human Ig constant parts; also called AB27_50
B2: P018.S.09.A.F05 (antibody, V domains shown)
VH: QEQLEESGGDLVKPGASLTLTCTASGFSFSSNYCMCWVRQAPGKGLEWIACICAGASGATYYASWAKGRFTVSKTSSTTVTLQMTSLTGADTATYFCARYDNSGWGDFKLWGPGTLVTVSS
VL: DIVMTQTPASVSEPVGGTVTINCQASQNIGTYLAWYQQKPGQRPKLLIYAASYLASGVPSRFKGSGSGTEVALTISDLESADAATYYCQNTYYDSPVVGGAFGGGTEVVVK
notes: V regions on human Ig constant parts; also called AB27_157
B3: P018.S.01.A.E02 (antibody, V domains shown)
VH: QSVEESGGRLVTPGTPLTLTCTASGFSLSNYYMSWVRQAPGKGLEWIGIISTYGDTYYATWAKGRFTISKTSTTVDLKITSPTTEDTATYFCARGSSDTYYTYFNLWGPGTLVTVSS
VL: DIVMTQTPASVEAAVGGTVTIKCQASQKIYNNLAWYQQKPGQPPKLLIYSASTLASGVPSRFKGSGSGTEFTLTISDLESADAATYYCQSYGVSANTISYGLPFGGGTEVVVK
notes: V regions on human Ig constant parts; also called AB27_14
B4: P018.S.05.A.D03 (antibody, V domains shown)
VH: QEQLEESGGDLVQPEGSLTLTCTVSGFSFNSNYWICWVRQAPGKGLEWIACIMTGDGSTYYATWAKGRFTISKTSSTTVTLQMTSLTAADTATYFCARGYDGIHGGDNYGHVFNLWGPGTLVTVSS
VL: AFELTQTPFSVSAVVGGTVTINCQASENIYSLLAWYQQKPGQPPKLLIYRASTLASGVPSRFKGSGSGTQFTLIISDLESGDAATYYCQSYYINSSNSFGGGTEVVVK
notes: V regions on human Ig constant parts; also called AB27_86
B5: P018.S.08.A.F01 (antibody, V domains shown)
VH: QSVEESGGRLVTPGTPLTLTCTVSGSDISGYALGWVRQAPGKGLEYIGVIAADGNAYYASWAKGRFTISRTSTTVDLKMTSLTTEDTATYFCARGYSSGWGTYGYFDLWGQGTLVTVSS
VL: DIVMTQTPASVSAAVGGTVTIKCQASEDIYSYLAWYQQKPGQPPKLLIYRASTLESGVPSRFKGSGSGTQFTLTISDLESADAATYYCQSYYYSHSTTYSNVFGGGTEVVVK
notes: V regions on human Ig constant parts; also called AB27_140
B6: P018.S.10.A.B02 (antibody, V domains shown)
VH: QSVEESGGRLVTPGGSLTLSCTVNGFSLSSHGVSWVRQAPGKGLEWIGIIYVISGHAYYASWAKGRFTISKTSTTVDLKIASPTTEDTATYFCARGNYGSDSGPNFTRLDLWGQGTLVTVSS
VL: AQVLTQTPSPVSATVGGTLTINCQASQSLYNNDYLAWYQQKPGQPPKLLIYLASTLASGVSSRFKGSGSGTQFTLTISGVQSDDAATYYCQGEFSCSSGDCLAFGGGTEVVVK
notes: V regions on human Ig constant parts; also called AB27_167
B7: P018.S.05.A.A06 (antibody, V domains shown)
VH: QSLEESGGRLVTPGTPLTLTCTVSGIDLNNNAMSWVRQAPGEGLEWIGIISTAGTTTYASWTKGRFTISKTSTTVDLKITSPTTEDTATYFCARAAYFSYGYINLWGQGTLVTVSS
VL: DIVMTQTPASVEAAVGGTVTIKCQASQNIGNALAWYQQKSGQPPKLLIYSASTLASGVPSRFKGSGSGTEFTLTISDLESADATTYFCQSYVYSDGNVFGGGTEVVVK
notes: V regions on human Ig constant parts; also called AB27_82
B8: P018.S.04.A.E05 (antibody, V domains shown)
VH: QSLEESGGDLVKPGASLTLTCTASGFSFSSDYYMCWVRQAPGKGLEWIACISAGSSGSIYYASWAKGRFTISKTSSTTVTLQMTSLTAADTATYFCAREASDSIYYPIFNLWGPGTLVTVSS
VL: AAVLTQTPSPVSAAVGGTVSISCQSSKSVYNNNALSWFQQKPGQPPKLLIYGASTLPSRVPSRFKGSGSGTQFTLTISDVQSDDAATYYCIGGYSSSSDTNAFGGGTEVVVK
notes: V regions on human Ig constant parts; also called AB27_76
B9: P018.S.09.A.G06 (antibody, V domains shown)
VH: QSVEESGGRLVTPGTPLTLTCTASGFSLSNYHMSWVRQAPGKGLEWIGIIYAGSDSTWYASWAKGRFTISKTSTTVDLKITSPTTEDTATYFCARQPGGGASDTQLDLWGQGTLVTVSS
VL: AAVLTQTASPVSAAVGGTVTINCQSSQNIFDNNQLSWFQHKSGQSPKLLIYRASTLASGVPSRFKGSGSGTQFTLTISDVQSDDAATYYCLGGYSSSSDTVFGGGTEVVVK
notes: V regions on human Ig constant parts; also called AB27_159
B10: P018.S.05.A.B06 (antibody, V domains shown)
VH: QSVEESGGRLVTPGTPLTLTCTVSGFSLNTYVMSWVRQAPGKGLEWIGYIDYGGAPYYASWAKGRFTISKTSTTVELKITSPTIEDTATYFCARGGYGGYVLVTVLWGPGTLVTVSS
VL: DVVMTQTPASVSEPVGGTVTIKCQASQNIYSSLAWYQQKPGQPPKLLIYQASTLASEVPSRFKGSGSGTEFTLTINDLESADAATYYCQTYYGGSTYGNGFGGGTEVVVE
notes: V regions on human Ig constant parts; also called AB27_84
B11: P018.S.07.A.A02 (antibody, V domains shown)
VH: B10 VH with N29S, T30S
VL: B10 VL with T53R, N76S
notes: V regions on human Ig constant parts; also called AB27_113
B12: P018.S.12.A.H03 (antibody, V domains shown)
VH: QSLEESRGGLVQPEGSLTLTCKASGFSFSSGYYMCWVRQAPGKGLEWIGCIYSGSDSACYASWAKGRFTISKTSSTTVTLQMTSLTVADTATYFCVRDLGDYNALSYTINLWGPGTLVTVSS
VL: DVVMTQTPSSVSAAVGGTVTIKCQASQSISTNLAWYQEKAGQPPKLLIYRASTVASGVPSRFKGSGSGTQFTLTISDLESADATTYFCQCIDYDDYGGTFGGGTEVVVK
notes: V regions on human Ig constant parts; also called AB134_89
B13: P018.S.11.A.F02 (antibody, V domains shown)
VH: QSVEESGGRLVTPGTPLTLTCTASGFSLSNYNMGWVRQAPGEGLEWIGHISTDGSAYYASWAKGRFTISKTSTTVDLKITSPTTEDTGTYFCARLYYRHGYALNLWGQGTLVTVSS
VL: DIVMTQTPASVSEPVGGTVTIKCQASQSVGSYLAWYQQKSGQPPKLLIYSASTLASGVPSRFKGSGSGTEFTLTISDLVSADAATYYCHCTYGSNITANWGTFGGGTGVVVK
notes: V regions on human Ig constant parts; also called AB134_38

What follows are binders tested against T1, CD27 expressed on the cell surface of … (assay: cell-based or functional assay).
Note: test concentration or dose not given here.

Row | Binder | Functional assay Cross-linked by F(ab′)2 fragment IL-8 | Functional assay IL-8
1 | B1 | 1.5 abs. corr. | 0.5 abs. corr.
2 | B2 | 1.68 abs. corr. | 0.158 abs. corr.
3 | B3 | 1.17 abs. corr. | 0.276 abs. corr.
4 | B4 | 1.28 abs. corr. | 0.1 abs. corr.
5 | B5 | 1.11 abs. corr. | 0.211 abs. corr.
6 | B6 | 1.91 abs. corr. | 0.47 abs. corr.
7 | B7 | 1.58 abs. corr. | 0.324 abs. corr.
8 | B8 | 1.77 abs. corr. | 0.747 abs. corr.
9 | B9 | 1.34 abs. corr. | 0.467 abs. corr.
10 | B10 | 1.7 abs. corr. | 0.22 abs. corr.
11 | B11 | 1.85 abs. corr. | 0.059 abs. corr.

Each binder was assayed against T2, CD134 expressed on the cell surface of … (assay: cell-based or functional assay).

Row | Binder | Functional assay Cross-linked by F(ab′)2 fragment IL-8 | Functional assay IL-8
12 | B12 | 1.27 abs. corr. | -0.074 abs. corr.
13 | B13 | 1.38 abs. corr. | -0.011 abs. corr.

These binders were tested against T1, CD27 expressed on the cell surface of … (assay: HT1080_CD27 cells, imaging).

Row | Binder | Cellular binding assay [RFU]
14 | B1 | 324 RFU
15 | B2 | 400 RFU
16 | B3 | 360 RFU
17 | B4 | 321 RFU
18 | B5 | 395 RFU
19 | B6 | 249 RFU
20 | B7 | 374 RFU
21 | B8 | 319 RFU
22 | B9 | 338 RFU
23 | B10 | 309 RFU
24 | B11 | 314 RFU

The binders below were run against T2, CD134 expressed on the cell surface of … (assay: HT1080_OX40 cells, imaging).

Row | Binder | Cellular binding assay [RFU]
25 | B12 | 496 RFU
26 | B13 | 503 RFU

The binders below were run against T3, CD27 protein (His-tagged, Sino …) (assay: ELISA, coated His-tagged CD27).

Row | Binder | ELISA [abs. corr.]
27 | B1 | 3.12 abs. corr.
28 | B2 | 3.12 abs. corr.
29 | B3 | 3.13 abs. corr.
30 | B4 | 3.1 abs. corr.
31 | B5 | 3.1 abs. corr.
32 | B6 | 3.11 abs. corr.
33 | B7 | 3.11 abs. corr.
34 | B8 | 3.11 abs. corr.
35 | B9 | 3.12 abs. corr.
36 | B10 | 3.1 abs. corr.
37 | B11 | 3.08 abs. corr.

What follows are binders tested against T4, CD134 protein (His-tagged, Sino …) (assay: ELISA, coated His-tagged CD134).

Row | Binder | ELISA [abs. corr.]
38 | B12 | 2.48 abs. corr.
39 | B13 | 2.43 abs. corr.
